Several values for one entry are separate records, joined by “and”; a condition that tells them apart may be missing. Equal entries are not always repeated.
T1: soluble recombinant human lymphotoxin α1β2 (human, UniProt P01374 35-205, limits assumed)
T1 sequence 1: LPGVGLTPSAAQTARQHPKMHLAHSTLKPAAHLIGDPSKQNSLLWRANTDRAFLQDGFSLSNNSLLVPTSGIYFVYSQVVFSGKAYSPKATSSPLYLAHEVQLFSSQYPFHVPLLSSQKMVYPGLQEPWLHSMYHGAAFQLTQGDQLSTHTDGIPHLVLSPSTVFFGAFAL
T1 sequence 2: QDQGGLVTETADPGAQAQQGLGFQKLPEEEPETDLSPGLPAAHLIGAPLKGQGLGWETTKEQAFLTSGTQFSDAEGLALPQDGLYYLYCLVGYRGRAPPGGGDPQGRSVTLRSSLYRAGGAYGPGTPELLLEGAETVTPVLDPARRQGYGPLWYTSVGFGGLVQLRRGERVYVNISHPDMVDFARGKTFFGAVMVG

T2: LTα3 (soluble homotrimer) (UniProt P01374 35-205)
T2 construct: Coated on ELISA plates at 1 or 5 ug/ml; also called LTa3
T2 sequence (looked up): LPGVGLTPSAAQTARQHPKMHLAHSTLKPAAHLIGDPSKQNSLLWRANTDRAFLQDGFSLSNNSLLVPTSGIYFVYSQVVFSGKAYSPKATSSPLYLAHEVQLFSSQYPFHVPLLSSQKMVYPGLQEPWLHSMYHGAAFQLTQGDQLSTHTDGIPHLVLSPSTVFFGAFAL

T3: LTα1β2 on the surface of PMA-treated II-23 cells (UniProt P01374 35-205, limits assumed)
T3 construct: whole, on cells; also called surface LT
T3 sequence 1: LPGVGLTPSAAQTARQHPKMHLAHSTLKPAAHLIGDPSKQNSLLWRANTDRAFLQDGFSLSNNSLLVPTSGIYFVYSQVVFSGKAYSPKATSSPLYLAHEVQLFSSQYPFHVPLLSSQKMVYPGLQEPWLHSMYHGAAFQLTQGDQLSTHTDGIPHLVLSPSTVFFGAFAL
T3 sequence 2: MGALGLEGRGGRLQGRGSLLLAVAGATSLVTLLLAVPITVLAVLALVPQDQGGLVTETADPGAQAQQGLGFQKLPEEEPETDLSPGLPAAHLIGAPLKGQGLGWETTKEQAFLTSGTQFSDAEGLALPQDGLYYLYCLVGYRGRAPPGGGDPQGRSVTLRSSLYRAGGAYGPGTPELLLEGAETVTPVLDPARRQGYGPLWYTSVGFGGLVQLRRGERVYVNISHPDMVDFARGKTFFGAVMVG


Assays:
[1] = biological target: T1, soluble recombinant human lymphotoxin …; assay: cell-based or functional assay
[2] = biological target: T2, LTα3 (soluble homotrimer); assay: ELISA on plate-coated LTα3 (1 or 5 ug/ml)
Description: For the LTa3 ELISA, microtiter plates were coated with LTα3 (1 or 5 ug/ml in PBS) then nonspecific binding sites were blocked with a 1% casein buffer. Samples (antibodies, receptor-Ig) were added and binding detected with HRP-conjugated anti-murine Ig antibodies. For assessment of ability of mAbs to block interaction between LTα3 and TNFR-hIg (p55), plates were coated with LTα3 and blocked as described above. Serial dilutions of antibodies were added to plate 30 minutes prior to TNFR-Ig addition. Binding of TNFR-hIg to plate-bound LTα3 was detected with an HPR conjugated anti-human Ig antibody.

[3] = biological target: T3, LTα1β2 on the surface of PMA-treated …; assay: FACS, inhibition of biotin-LTβR-Ig binding to PMA-treated II-23 cells
Description: (§1) II-23 cells were incubated with 50 ng/ml PMA for 4 hours at 37° C. 5% CO2. The cells were washed and 500,000 cells were added to each well of a 96-well plate. The antibody was diluted to the appropriate concentrations and added to the II-23 cells. After a 30 minute incubation period at 4° C., the biotin labeled LTβR-Ig is added to each well for a final concentration of 1 ug/ml. The cells are incubated at 4° C. for an additional 30 minutes, and then washed 3 times. Streptavidin-PE was diluted to 1/500 and added to each well and incubated for 1 hour at 4° C. The cells were washed once and read by FACS analysis. The mean fluorescence intensity is plotted versus antibody concentrations, and an IC50 is determined from a 4-parameter curve fit of the data.

[4] = biological target: T3, LTα1β2 on the surface of PMA-treated …; assay: FACS, inhibition of biotin-LTβR-Ig (1 ug/ml) binding to PMA-treated II-23 cells
Description: as §1

[5] = biological target: T3, LTα1β2 on the surface of PMA-treated …; assay: competition FACS (II-23 assay): PMA-treated II-23 cells, varied antibody, then biotin-LTβR-Ig at 1 ug/ml, streptavidin-PE; MFI of bound LTβR-Ig
Description: as §1

[6] = biological target: T3, LTα1β2 on the surface of PMA-treated …; assay: competition FACS (II-23 assay, as in FIG. 4): LT-expressing cells, varied antibody, labelled LTβR-Ig; MFI of bound LTβR-Ig
Description: as §1

[7] = biological target: T3, LTα1β2 on the surface of PMA-treated …; assay: competition FACS (II-23 assay, as in FIG. 4): LT-expressing cells, varied competitor, labelled LTβR-Ig; MFI of bound LTβR-Ig
Description: as §1

[8] = biological target: T3, LTα1β2 on the surface of PMA-treated …; assay: competition FACS (II-23 assay): PMA-treated II-23 cells, varied competitor, then biotin-LTβR-Ig at 1 ug/ml, streptavidin-PE; MFI of bound LTβR-Ig
Description: as §1

Binder	IC50 nM, inhibition of IL-8 release [1]	Maximum % Inhibition of IL-8 release [1] [%]	binding result [2]	potency in an II-23 assay (% blockade) [3] [%]	Maximum % Inhibition [4] [%]	IC50 (read off the curve) [5] [nM]	IC50 (read off the curve) [6] [µg/mL]	IC50 (read off the curve) [7] [µg/mL]	IC50 (read off the curve) [8] [nM]
9B4 (antibody, V domains shown, Murine monoclonal antibody, kappa light chain; also called LT 9B4; LT9B4) VH: QVTLKESGPGILQPSQTLSLTCSFSGFSLSTSGMGVSWIRQPSGKGLEWLAHIYWDDDKRYNPSLRSRLTISKDTSRNQVFLKITSVDTADTATYYCARREGYYGSSFDFDVWGAGTTVTVSS VL: QIVLSQSPAILSASPGEKVTMTCRASSSVSYMIWYQQKPGSSPKPWIYATSSLASGVPTRFSGSGSGTSYSLTISRVEAADAATYYCQQWSYNPLTFGAGTKLELK	0.6 nM	95	no binding	> 90	99	~0.9			
LT101 (P1G4.4) / LT103 (P1G9.1) (antibody, V domains shown, Murine monoclonal antibody, kappa light chain; also called LT101/LT103) VH: QVQLQQSGPELVKPGASVQISCKASGYVFSSSWMNWVKQRPGRGLEWIGRIYPGDGDTDYTGKFKGKATLTADKSSNTAYMQLSSLTSVDSAVYFCASGYFDFWGQGTPLTVSS VL: DITMTQSPSSMYASLGERVTITCKASQDMNNYLRWFQQKPGKSPQTLIFRANRLVDGVPSRFSGSGSGQDYSLTISSLEFEDMGIYYCLQHDKFPPTFGGGTKLEIK	1.11 nM	90			77		~0.04		
LT105 (P2E9.7) (antibody, IgG1, V domains shown, The humanized versions were tested only for solubility; also called mAb LT105) VH: DVQLQESGPGLVKPSQSLSLTCSVTGYSITSGYYWNWIRQFPGNKLEGMGYISYDGSNNYNPSLKNRISITRDSSKNQFFLKLNSVTAEDSGTYYCARDAYSYGMDYWGQGTSVTVSS VL: DIVLTQSPASLAVSLGQRATISCRASESVDNYGISFMHWYQQKPGQPPKLLIYRASNLESGIPARFSGSGSRTDFTLTINPVETDDVATFYCQQSNKDPYTFGGGTKLEIK	1.06 nM and 0.52 nM	100	no binding	> 90	97	~1	~0.06		
LT102 (P1G8.2) (antibody, IgG1, V domains shown, also called mAb LT102; LT012) VH: EVKLVESGGGLVKPGGSLKLSCAVSGFTFSDYYMYWIRQTPEKRLEWVATIGDGTSYTHYPDSVQGRFTISRDYATNNLYLQMTSLRSEDTALYYCARDLGTGPFAYWGQGTLVTVSA VL: DVLMTQTPRSLPVSLGDQASISCRSSQNIVHSNGNTYLEWYLQKPGQSPKLLIYKVSNRFSGVPDRFSGSGSGTDFTLKISRVEAEDLGVYYCFQGSHFPWTFGGGTKLEIK	0.406 nM and 0.991 nM	92	no binding	> 90	98	~3	~0.4		
LTβR-Ig (Fc fusion, UniProt P36941 31-227, looked up, biotin label in the II-23 assay (sites not given), also called LTBR-Ig; LTbR-Ig; not shown: Ig (Fc) part) QAVPPYASENQTCRDQEKEYYEPQHRICCSRCPPGTYVSAKCSRIRDTVCATCAENSYNEHWNYLTICQLCRPCDPVMGLEEIAPCTSKRKTQCRCQPGMFCAAWALECTHCELLSDCPPGTEAELKDEVGKGNNHCVPCKAGHFQNTSSPSARCQPHTRCENQGLVEAAPGTAQSDTTCKNPLEPLPPEMSGTMLM								~0.03	~0.8

Reference: US20140079716A1 (Biogen, published 2014)
